Results taken from publication PMC7469494 (Autophagy, 2019).
Positions count from the first letter of the chain named.

Columns and labels:
[1] = target: T1, Vac8[40–578] (S. cerevisiae, UniProt P39968 40-578); test: SAXS
T1 sequence (looked up): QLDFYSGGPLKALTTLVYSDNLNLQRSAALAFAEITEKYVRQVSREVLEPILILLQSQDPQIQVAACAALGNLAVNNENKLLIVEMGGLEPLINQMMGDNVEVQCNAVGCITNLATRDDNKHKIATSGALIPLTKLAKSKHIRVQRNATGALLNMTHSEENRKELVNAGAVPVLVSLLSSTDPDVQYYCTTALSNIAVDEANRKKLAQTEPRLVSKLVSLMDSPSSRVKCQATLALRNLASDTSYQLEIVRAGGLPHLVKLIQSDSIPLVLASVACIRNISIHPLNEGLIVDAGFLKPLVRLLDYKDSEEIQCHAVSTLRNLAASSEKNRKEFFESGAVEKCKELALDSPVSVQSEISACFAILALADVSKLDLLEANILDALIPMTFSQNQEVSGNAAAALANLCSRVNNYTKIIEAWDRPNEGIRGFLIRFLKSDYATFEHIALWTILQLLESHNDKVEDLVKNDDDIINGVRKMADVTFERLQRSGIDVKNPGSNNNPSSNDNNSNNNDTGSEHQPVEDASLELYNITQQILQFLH

[2] = target: T2, Vac8[40–515] (S. cerevisiae, UniProt P39968 40-515); test: SEC
T2 sequence (looked up): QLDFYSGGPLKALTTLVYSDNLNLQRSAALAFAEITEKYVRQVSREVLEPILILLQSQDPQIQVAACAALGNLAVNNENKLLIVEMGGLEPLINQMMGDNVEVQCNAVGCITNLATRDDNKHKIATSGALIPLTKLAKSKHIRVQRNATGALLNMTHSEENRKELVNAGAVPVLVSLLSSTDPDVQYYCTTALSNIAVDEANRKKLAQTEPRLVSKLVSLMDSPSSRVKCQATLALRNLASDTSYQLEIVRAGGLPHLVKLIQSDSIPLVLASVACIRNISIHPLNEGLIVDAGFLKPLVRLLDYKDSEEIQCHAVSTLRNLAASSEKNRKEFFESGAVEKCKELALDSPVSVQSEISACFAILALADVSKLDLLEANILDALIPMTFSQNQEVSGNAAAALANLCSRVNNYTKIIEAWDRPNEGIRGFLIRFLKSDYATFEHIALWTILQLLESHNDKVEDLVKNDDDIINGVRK

[3] = target: T3, Vac8[40–515]^A51R (S. cerevisiae, UniProt P39968 40-515, A51R); test: SEC
T3 sequence (looked up): T2 sequence (looked up) with A12R

[4] = target: T4, Vac8[40–515]^N62R (S. cerevisiae, UniProt P39968 40-515, N62R); test: SEC
T4 sequence (looked up): T2 sequence (looked up) with N23R

[5] = target: T5, Vac8[40–515]^N60R,N62R (S. cerevisiae, UniProt P39968 40-515, N60R | N62R); test: SEC
T5 sequence (looked up): T2 sequence (looked up) with N21R, N23R

Measured: binding result

B1: tAtg13 (Atg13 construct comprising residues 567–695) (domain or fragment, S. cerevisiae, UniProt Q06628 567-695, looked up)
chain: GGNSSTSALNSRRNSLDKSSNKQGMSGLPPIFGGESTSYHHDNKIQKYNQLGVEEDDDDENDRLLNQMGNSATKFKSSISPRSIDSISSSFIKSRIPIRQPYHYSQPTTAPFQAQAKFHKPANKLIDNG
binds: all assays above
